These are literature values, as cited in article PMC2663012.

The target of this series is PKR (Homo sapiens) (UniProt P19525). Briefly: analytical ultracentrifugation.

Usually Kd stands for a measure of binding affinity in units of concentration. Consider PKR (from UniProt P19525), for which the Kd is 450 µM.
